Reference: US20090098549, “SELEX AND PHOTOSELEX” (SOMALOGIC, INC., published 2009)

Molecular target: beta-catenin (UniProt P35222 P35222:2-781)
Experiment: photocrosslink returned to full activity without 3' fixed region
Conditions: tags: NHS-PEO4-biotin or His tag (assay used TALON beads); label: 32P
Experimental: Radiolabeled aptamer (100 pM) was denatured and renatured as described above, with, or without a 100-fold excess of unlabeled 3′ primer. The samples were incubated with or without 10 nM β-catenin protein in SB17 for 30 minutes at 37° C., after which complexes were crosslinked by irradiation with an OAI Hg lamp (Optical Associates, Inc. model 0131-0003-01, 500 W, with 310 nm mirror set) for 10 minutes at 37° C. Samples were mixed with 2× formamide loading buffer, heated for 10 minutes at 70° C., and loaded on a 10% polyacrylamide TBE-urea gel. Phosphorimages were collected with a FUJI FLA-3000 FIG. 7A. Crosslink activity was determined for each sample by quantifying the free aptamer and aptamer:protein signals with FUJI ImageGauge image analysis software and calculating the percent of total DNA crosslinked with target protein and subtracting the percent crosslinked without protein.

beta-catenin, sequence (P35222 2-781, one chain of several): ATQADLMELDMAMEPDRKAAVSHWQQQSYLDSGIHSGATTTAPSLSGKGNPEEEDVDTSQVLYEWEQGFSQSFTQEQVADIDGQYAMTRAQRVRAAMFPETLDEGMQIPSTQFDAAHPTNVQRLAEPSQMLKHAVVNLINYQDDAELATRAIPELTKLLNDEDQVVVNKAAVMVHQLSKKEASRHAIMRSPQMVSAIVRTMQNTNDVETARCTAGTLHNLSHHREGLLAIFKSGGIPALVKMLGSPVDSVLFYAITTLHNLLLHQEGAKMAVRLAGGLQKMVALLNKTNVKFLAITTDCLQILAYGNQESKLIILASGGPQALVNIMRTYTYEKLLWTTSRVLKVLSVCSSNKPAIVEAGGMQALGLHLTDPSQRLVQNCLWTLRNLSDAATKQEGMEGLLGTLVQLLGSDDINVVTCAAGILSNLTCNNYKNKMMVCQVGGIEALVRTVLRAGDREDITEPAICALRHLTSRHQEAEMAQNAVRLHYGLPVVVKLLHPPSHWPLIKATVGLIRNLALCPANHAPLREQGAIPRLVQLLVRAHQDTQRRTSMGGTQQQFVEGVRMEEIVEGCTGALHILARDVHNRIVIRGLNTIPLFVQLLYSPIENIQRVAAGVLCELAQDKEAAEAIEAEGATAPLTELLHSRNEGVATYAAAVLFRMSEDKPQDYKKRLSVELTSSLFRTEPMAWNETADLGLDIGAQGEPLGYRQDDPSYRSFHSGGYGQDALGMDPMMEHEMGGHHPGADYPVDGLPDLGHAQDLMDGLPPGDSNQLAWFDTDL

B1: 2092-68-6 (ssDNA)
DNA: ATATATATGAGTGACCGTCTGCCTGAGCUGCGGUUGAUGAUAUACUUCGCUUUCACUGCUCACAC
modifications: X=ANA-dT, Z=BzdU
binding result: binds
